From patent publication US20120316071A1 (published 2012)

B1: Fab VH1-46_IGHD6-6*01_IGHJ1*01 S102A & L6_IGKJ1*01 (Fab, V domains shown)
VH: QVQLVQSGAEVKKPGASVKVSCKASGYTFTSYYMHWVRQAPGQGLEWMGIINPSGGSTSYAQKFQGRVTMTRDTSTSTVYMELSSLRSEDTAVYYCAREEYASSSAEYFQHWGQGTLVTVSS
VL: not shown
notes: Fab
B2: Fab VH1-46_IGHD6-6*01_IGHJ1*01 S103P & L6_IGKJ1*01 (Fab, V domains shown)
VH: QVQLVQSGAEVKKPGASVKVSCKASGYTFTSYYMHWVRQAPGQGLEWMGIINPSGGSTSYAQKFQGRVTMTRDTSTSTVYMELSSLRSEDTAVYYCAREEYSPSSAEYFQHWGQGTLVTVSS
VL: not shown
notes: Fab
B3: Fab VH1-46_IGHD6-6*01_IGHJ1*01 S104F & L6_IGKJ1*01 (Fab, V domains shown)
VH: QVQLVQSGAEVKKPGASVKVSCKASGYTFTSYYMHWVRQAPGQGLEWMGIINPSGGSTSYAQKFQGRVTMTRDTSTSTVYMELSSLRSEDTAVYYCAREEYSSFSAEYFQHWGQGTLVTVSS
VL: not shown
notes: Fab
B4: Fab VH5-51_IGHD5-18*01>3_IGHJ4*01 G100K/G104T G24T/S28R/G35V (H:KT TRV) & V3-4_IGLJ1*01 (Fab, V domains shown)
VH: EVQLVQSGAEVKKPGESLKISCKTSGYRFTSYWIVWVRQMPGKGLEWMGIIYPGDSDTRYSPSFQGQVTISADKSISTAYLQWSSLKASDTAMYYCARRKYSYTYDYFDYWGQGTLVTVSS
VL: QTVVTQEPSFSVSPGGTVTLTCGLSSGSVSTSYYPSWYQQTPGQAPRTLIYSTNTRSSGVPDRFSGSILGNKAALTITGAQADDESDYYCVLYMGSGISYVFGTGTKVTVL
notes: Tested as a Fab made in E. coli; also called H:KT TRV & L:wt; Wildtype (light chain)
B5: Fab VH5-51_IGHD5-18*01>3_IGHJ4*01 G100K/G104T G24T/S28R/G35V (H:KT TRV) & V3-4_IGLJ1*01 V91L/S96P S52G (Fab, V domains shown)
VH: EVQLVQSGAEVKKPGESLKISCKTSGYRFTSYWIVWVRQMPGKGLEWMGIIYPGDSDTRYSPSFQGQVTISADKSISTAYLQWSSLKASDTAMYYCARRKYSYTYDYFDYWGQGTLVTVSS
VL: QTVVTQEPSFSVSPGGTVTLTCGLSSGSVSTSYYPSWYQQTPGQAPRTLIYGTNTRSSGVPDRFSGSILGNKAALTITGAQADDESDYYCLLYMGPGISYVFGTGTKVTVL
notes: Tested as a Fab made in E. coli; also called H:KT TRV & L:LP S52G
B6: Fab VH5-51_IGHD5-18*01>3_IGHJ4*01 G100K/G104T G24T/S28R/G35V (H:KT TRV) & V3-4_IGLJ1*01 V91L/S96P S52M (Fab, V domains shown)
VH: EVQLVQSGAEVKKPGESLKISCKTSGYRFTSYWIVWVRQMPGKGLEWMGIIYPGDSDTRYSPSFQGQVTISADKSISTAYLQWSSLKASDTAMYYCARRKYSYTYDYFDYWGQGTLVTVSS
VL: QTVVTQEPSFSVSPGGTVTLTCGLSSGSVSTSYYPSWYQQTPGQAPRTLIYMTNTRSSGVPDRFSGSILGNKAALTITGAQADDESDYYCLLYMGPGISYVFGTGTKVTVL
notes: Tested as a Fab made in E. coli; also called H:KT TRV & L:LP S52M

Tests used:
[1] = biological target: T1, Recombinant Human DLL4 (R&D Systems Cat#1506-D4/CF) (human, UniProt Q9NR61 27-524); experiment: 96-well plate ECL, DLL4 coated
T1 construct: bought recombinant protein; also called rHuman DLL4; delta-like protein 4

[2] = biological target: T2, Recombinant Human DLL4 (delta-like protein 4) (human, UniProt Q9NR61 27-524); experiment: ELISA, DLL4 coated on plate; Fab at 11.11 (head prints µM, text says nM)
T2 construct: Bought recombinant protein (R&D Systems Cat#1506-D4/CF); also called rHuman DLL4; Delta-like 4

[3] = biological target: T2, Recombinant Human DLL4 (delta-like …); experiment: ELISA, DLL4 coated on plate; Fab at 3.70 (head prints µM, text says nM)
[4] = biological target: T2, Recombinant Human DLL4 (delta-like …); experiment: ELISA, DLL4 coated on plate; Fab at 100 (head prints µM, text says nM)
[5] = biological target: T2, Recombinant Human DLL4 (delta-like …); experiment: ELISA, DLL4 coated on plate; Fab at 33.33 (head prints µM, text says nM)
[6] = biological target: T2, Recombinant Human DLL4 (delta-like …); experiment: ELISA, DLL4 coated on plate; Fab at 1.23 (head prints µM, text says nM)
[7] = biological target: T2, Recombinant Human DLL4 (delta-like …); experiment: ELISA, DLL4 coated on plate; Fab at 0.14 (head prints µM, text says nM)
[8] = biological target: T2, Recombinant Human DLL4 (delta-like …); experiment: ELISA, DLL4 coated on plate; Fab at 0.05 (head prints µM, text says nM)
[9] = biological target: T2, Recombinant Human DLL4 (delta-like …); experiment: ELISA, DLL4 coated on plate; Fab at 0.41 (head prints µM, text says nM)

Row | Binder | fold signal/noise ratio against the parent Fab [1] [fold] | ELISA signal [2] | ELISA signal [3] | ELISA signal [4] | ELISA signal [5] | ELISA signal [6] | ELISA signal [7] | ELISA signal [8] | ELISA signal [9]
1 | B1 | ~3 |  |  |  |  |  |  |  | 
2 | B2 | ~3 |  |  |  |  |  |  |  | 
3 | B3 | ≥ 4 |  |  |  |  |  |  |  | 
4 | B4 |  | 0.04 | 0.03 | 0.16 | 0.08 | 0.01 | 0 | 0.01 | 0.01
5 | B5 |  | 0.17 | 0.06 | 0.69 | 0.35 | 0.03 | 0.02 | 0.02 | 0.01
6 | B6 |  | 0.06 | 0.03 | 0.24 | 0.12 | 0.03 | 0.02 | 0.02 | 0.03
